According to patent EP3553078A1 (Julius-Maximilians-Universität Würzburg, dated 2019):

Molecular target: T1, IL-4Rα ectodomain (site-specifically biotinylated IL-4Rα ectodomain protein) (human, UniProt P24394 26-232, site-specifically biotinylated (site not stated))
T1 construct: extracellular domain; Immobilised on a streptavidin-coated SPR chip; also called IL-4Rα ECD; IL-4 receptor α
T1 sequence (looked up): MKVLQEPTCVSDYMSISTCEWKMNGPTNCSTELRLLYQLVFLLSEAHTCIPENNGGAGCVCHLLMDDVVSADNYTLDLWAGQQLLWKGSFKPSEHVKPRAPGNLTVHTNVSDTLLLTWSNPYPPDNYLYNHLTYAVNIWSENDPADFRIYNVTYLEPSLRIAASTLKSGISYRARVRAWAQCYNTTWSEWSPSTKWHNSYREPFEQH
Assay: in vitro interaction analysis (SPR) on IL-4Rα

- Kd: ~0.218 nM
B1: IL-4 mutein F82D Q20N T28N K61N R121C-Glc (Hek293-derived, hyper-glycosylated) (ligand)
chain: HKCDITLQEIIKTLNSLTENKTLCTELNVTDIFAASKNTTEKETFCRAATVLRQFYSHHENDTRCLGATAQQFHRHKQLIRDLKRLDRNLWGLAGLNSCPVKEANQSTLENFLERLKTIMCEKYSKCSS
modifications: complex N-glycans at positions 38, 20, 28 and 61; disulphide conjugated glucose at Cys121
notes: also called Q20N/T28N/K61N/F82D/R121C-Glc; 3rd generation IL-4 antagonist; not shown: C-terminal thrombin cleavage site and hexahistidine tag of the modified pHLsec vector
